Experimental data reported in paper PMC13638050.

Target: H1 stem (recombinant HA stem construct #4900 designed based on H1N1 A/Brisbane/59/2007 HA) (influenza A virus H1N1 A/Brisbane/59/2007)
Assay: BLI

## somatic CR9114 Fab
  Kd: < 0.1 nM
